Article PMC3998375 (Structure (London, England : 1993), 2013)
Positions count from the first letter of the chain named. Names and notes keep the numbering of the source.

B1: murine B7-H3 ectodomain (mB7H3) I126T (domain or fragment, mouse, UniProt Q8VE98 34-247, looked up)
chain: SEDPVVALVDTDATLRCSFSPEPGFSLAQLNLIWQLTDTKQLVHSFTEGRDQGSAYSNRTALFPDLLVQGNASLRLQRVRVTDEGSYTCFVSTQDFDSAAVSLQVAAPYSKPSMTLEPNKDLRPGNMVTITCSSYQGYPEAEVFWKDGQGVPLTGNVTTSQMANERGLFDVHSVLRVVLGANGTYSCLVRNPVLQQDAHGSVTITGQPLTFPPE
B2: murine B7-H3 ectodomain (mB7H3) F129A (domain or fragment, mouse, UniProt Q8VE98 34-247, looked up)
chain: B1 chain with T93I, F96A
B3: murine B7-H3 ectodomain (mB7H3) FG-loop chimera (I126Y/Q127G/D128G/F129A) (domain or fragment, mouse, UniProt Q8VE98 34-247, looked up)
chain: B1 chain with T93Y, Q94G, D95G, F96A

Tests used:
[1] = molecular target: murine B7-H3 ectodomain (mB7H3), wild type (mouse) (UniProt Q8VE98); test: SEC
SEC = molecular target: the molecule itself; test: SEC

| Molecule | kon [1] [M⁻¹ s⁻¹] | stoichiometry N [1] | kon (SEC) [M⁻¹ s⁻¹] |
| --- | --- | --- | --- |
| murine B7-H3 ectodomain (mB7H3), wild type (from UniProt Q8VE98 34-247) (domain or fragment) | 0.000161 | 2 | – |
| B1 | – | – | 4.1e-05 |
| B2 | – | – | 0.000164 |
| B3 | – | – | 8.3e-06 |
